Data reported in paper PMC11601447.

Columns and labels:
hClpP^dCTE-S153A (human) = hClpP^dCTE-S153A (human) (UniProt Q16740); test: cryo-EM structure
[1] = biological target: bortezomib-bound hClpP (human) (UniProt Q16740); test: cryo-EM structure
hClpX E285A (human) = hClpX E285A (human) (UniProt O76031); test: negative stain EM

## hClpP^dCTE-S153A (from UniProt Q16740 58-277) (enzyme)
hClpP^dCTE-S153A (human)
  stoichiometry N: 14

## bortezomib-bound hClpP (from UniProt Q16740 58-277) (enzyme)
[1]
  stoichiometry N: 14

## hClpX E285A (from UniProt O76031 57-633) (enzyme)
hClpX E285A (human)
  stoichiometry N: 6
